Like-named read-outs stand apart in the source and are kept apart here.
T1: recombinant His-tagged human IL-2Rβ (human, UniProt P14784 27-240, limits assumed)
T1 construct: also called IL-2Rβ-HIS; IL-15Rβ-HIS
T1 sequence (looked up): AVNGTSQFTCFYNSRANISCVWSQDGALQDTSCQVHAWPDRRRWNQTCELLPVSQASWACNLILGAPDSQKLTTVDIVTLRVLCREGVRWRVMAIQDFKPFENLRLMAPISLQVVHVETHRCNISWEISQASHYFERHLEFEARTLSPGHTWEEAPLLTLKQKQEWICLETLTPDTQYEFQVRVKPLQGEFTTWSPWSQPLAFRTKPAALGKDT


How the values were obtained:
[1] = biological target: PD-L1 on PD-L1 aAPC/CHOK1 cells (Promega J1250); test: cell-based or functional assay
[2] = biological target: T1, recombinant His-tagged human IL-2Rβ; test: SPR, Protein A capture, IL-2Rβ-HIS analyte
Protocol: (§1) The assay was run with Biacore T200 control software version 2.0. For each cycle, 1 μg/mL of anti-hPD-L1/IL-2 was captured for 60 seconds at flow rate of 10 μL/min on flow cell 2 in 1×HBSP buffer on Protein A sensor chip. […] The flow cells were then regenerated with Glycine pH2 for 60 seconds at flow rate of 30 μL/min. […] The specific binding response unit was derived from subtraction of binding to reference flow cell 1 from antibody captured flow cell 2.

[3] = biological target: T2, PD-L1 biotinylated (PD-1/PD-L1 TR-FRET assay kit, BPS 72038) (Homo sapiens (Human), UniProt Q9NZQ7 19-238, biotinylated; site not stated); test: HTRF competition, competitor PD-1-Eu
T2 construct: Kit reagent
Protocol: Briefly, 1× Immuno buffer 1 was made. […] For each well in 384-well plate, serial diluted scFvs and regents were added according to manufacturer's recommended volume. Samples were incubated at room temperature for 1.5 hours then the fluorescent intensity was read with Biotek Neo2 plate reader using manufacture's instrument setting for the assay.

[4] = biological target: T3, human PD-L1-HIS tagged recombinant protein (human, UniProt Q9NZQ7 19-238); test: SPR, Protein A capture, PD-L1-HIS analyte
T3 construct: also called hPD-L1-HIS; PD-L1 HIS tagged protein
Protocol: as §1

[5] = biological target: T1, recombinant His-tagged human IL-2Rβ; test: ELISA, coated His-tagged IL-2Rβ
Protocol: For monovalent IL-2 Fc-fusion proteins, recombinant His-tagged human IL-2Rα and IL-2Rβ were added in 25 μL of 1×PBS to wells of 384-well plate and incubated overnight at 4° C. to coat the plates. Plates were washed three times with 0.05% Tween20/1×PBS. Plates were blocked with 100 μL of SuperBlock for 1 hr at RT and then washed 3 times with 0.05% Tween20/1×PBS. IL-2 mutants were diluted in 0.05% Tween 20/1×PBS from 1000 nM to 0 nM and added to plates for 2 hrs at room temperature. Plates were then washed 6 times with 0.05% Tween20/1×PBS. Anti-HisTag-HRP was diluted 1:5000 in 0.05% Tween20/1×PBS and added to plates for 1 hr at RT. Plates were then washed 6 times with 0.05% Tween 20/1×PBS, and TMB was added to develop blue color. Reactions were stopped with 2N […] and light absorbance at 450 nm was read on a BioTek plate reader. Absorbance versus IL-2 concentration is graphed for human IL-2Rα and IL-2Rβ. […]

biotinylated PD-L1 = biotinylated PD-L1 (Homo sapiens (Human), UniProt Q9NZQ7 19-238, biotinylated; site not stated); test: ELISA, anti-human Fc capture, biotinylated PD-L1
Protocol: A 384 well plate was immobilized with anti-human Fc at final concentration of 2 μg/mL in 1×PBS in total volume of 25 μL per well. The plate was incubated overnight at 4C followed by blocking with 80 μL of superblock per well for 1 hour. […] In between each step, the plate was washed 3 times with 1×PBST in a plate washer. The plate was then developed with 25 μL of TMB substrate for 5 min and stopped by adding 25 μL of 2N sulfuric acid. The plate was read at OD450 nm Biotek plate reader and the binding correlation was plotted with Prism 8.1 software. The ELISA binding assays of the antibodies to IL-2Rα and IL-2Rβ receptors were performed as described in Example 6.

[6] = biological target: T3, human PD-L1-HIS tagged recombinant …; test: SPR, IgG on Protein A, PD-L1-HIS analyte
Protocol: as §1, with “anti-hPD-L1-IgG” for “anti-hPD-L1/IL-2”, “μl/min” for “μL/min”, “pH 2” for “pH2”, “μl/min.” for “μL/min.”

[7] = biological target: T4, full-length human PD-L1 on K562 cells (human, UniProt Q9NZQ7 19-290); test: FACS, PD-L1/K562 cells
T4 construct: also called PD-L1/K562; cell surface human PD-L1
Protocol: (§2) Cells were spun down at 1200 rpm for 5 minutes at 4° C. to remove primary antibodies. Cells were then washed once with 200 μL of full medium per well. […] Samples were spun down at 1200 rpm for 5 minutes at 4° C. and washed twice with 200 μL of 1×PBS per well. Samples were reconstituted in 200 μL of 1×PBS and were read on Attune NxT cytometer.
The production, the binding, and all of the characterization assays for selected affinity matured scFv clones were performed as described above.

[8] = biological target: T4, full-length human PD-L1 on K562 cells; test: FACS, PD-L1/K562 cells; remark: listed apart in the source
Protocol: as §2

| NFAT reporter EC50 [1] [nM] | Kd [2] [nM] | IC50 [3] [nM] | Kd [4] [nM] | EC50 [5] [nM] | EC50 (biotinylated PD-L1) [nM] | Kd [6] [nM] | EC50 [7] [nM] | Binder | other results |
| --- | --- | --- | --- | --- | --- | --- | --- | --- | --- |
| 2.3 | 57.4 | 176 | 0.464 | 4.01 | 0.141 |  |  | IL-2/anti-PD-L1 scFv Fc EP290/EP326 (bispecific antibody, IL2-Fc knob with 2019EP69-F03 scFv-Fc hole (EP326)) chain 1: not shown chain 2: QVQLVQSGAEVKKPGSSVKVSCKASGGTFSSYAISWVRQAPGQGLEWMGGIIPIFGTANYAQKFQGRVTITADESTSTAYMELSSLRSEDTAVYYCARDKWYGSAWRGDYWGQGTLVTVSSGGGGSGGGGSGGGGSQSVLTQPPSASGTPGQRVTISCSGSYSNIGSNFVNWYQQLPGTAPKLLIHFNNQRPSGVPDRFSGSRSGTSASLAISGLQSEDEADYFCSTWDDSLKGPIFGGGTKLTVLDKTHTCPPCPAPEAAGGPSVFLFPPKPKDTLMISRTPEVTCVVVDVSHEDPEVKFNWYVDGVEVHNAKTKPREEQYNSTYRVVSVLTVLHQDWLNGKEYKCKVSNKALGAPIEKTISKAKGQPREPQVCTLPPSRDELTKNQVSLSCAVKGFYPSDIAVEWESNGQPENNYKTTPPVLDSDGSFKLVSKLTVDKSRWQQGNVFSCSVMHEALHNHYTQKSLSLSPGK |  |
| 2.61 | 12000 | 134 | 0.593 | 2.18 | 0.156 |  |  | IL-2/anti-PD-L1 scFv Fc EP412/EP326 (bispecific antibody, IL2 with T3A/K35L/R38D/F42R) chain 1: not shown chain 2: QVQLVQSGAEVKKPGSSVKVSCKASGGTFSSYAISWVRQAPGQGLEWMGGIIPIFGTANYAQKFQGRVTITADESTSTAYMELSSLRSEDTAVYYCARDKWYGSAWRGDYWGQGTLVTVSSGGGGSGGGGSGGGGSQSVLTQPPSASGTPGQRVTISCSGSYSNIGSNFVNWYQQLPGTAPKLLIHFNNQRPSGVPDRFSGSRSGTSASLAISGLQSEDEADYFCSTWDDSLKGPIFGGGTKLTVLDKTHTCPPCPAPEAAGGPSVFLFPPKPKDTLMISRTPEVTCVVVDVSHEDPEVKFNWYVDGVEVHNAKTKPREEQYNSTYRVVSVLTVLHQDWLNGKEYKCKVSNKALGAPIEKTISKAKGQPREPQVCTLPPSRDELTKNQVSLSCAVKGFYPSDIAVEWESNGQPENNYKTTPPVLDSDGSFKLVSKLTVDKSRWQQGNVFSCSVMHEALHNHYTQKSLSLSPGK |  |
| 3.46 | 6.17 | 2280 | 0.465 | 1.33 | 0.227 |  |  | IL-2/anti-PD-L1 scFv Fc EP415/EP326 (bispecific antibody, IL2 EP337) chain 1: not shown chain 2: QVQLVQSGAEVKKPGSSVKVSCKASGGTFSSYAISWVRQAPGQGLEWMGGIIPIFGTANYAQKFQGRVTITADESTSTAYMELSSLRSEDTAVYYCARDKWYGSAWRGDYWGQGTLVTVSSGGGGSGGGGSGGGGSQSVLTQPPSASGTPGQRVTISCSGSYSNIGSNFVNWYQQLPGTAPKLLIHFNNQRPSGVPDRFSGSRSGTSASLAISGLQSEDEADYFCSTWDDSLKGPIFGGGTKLTVLDKTHTCPPCPAPEAAGGPSVFLFPPKPKDTLMISRTPEVTCVVVDVSHEDPEVKFNWYVDGVEVHNAKTKPREEQYNSTYRVVSVLTVLHQDWLNGKEYKCKVSNKALGAPIEKTISKAKGQPREPQVCTLPPSRDELTKNQVSLSCAVKGFYPSDIAVEWESNGQPENNYKTTPPVLDSDGSFKLVSKLTVDKSRWQQGNVFSCSVMHEALHNHYTQKSLSLSPGK |  |
|  |  |  |  |  |  | 5.73 |  | anti-PD-L1 IgG antibody EP480/EP481 (2018EP164-F04) (antibody, V domains shown) VH: QVQLQQWGAGLLKPSETLSLTCAVYGGSFSGYYWSWIRQPPGKGLEWIGEINHSGSTNYNPSLKSRVTISVDTSKNQFSLKLSSVTAADTAVYYCARGRRLRYFDWAAYNWFDPWGQGTLVTVSS VL: QSALTQDPAVSVALGQTVRITCQGDSLRSHYASWYQQKPGQAPVVVVYDNSDRPSGIPDRFSGSNSGNTATLTISRVEVGDEADYYCQVWDSSSDHYVFGTGTKVEIRT |  |
|  |  |  |  |  |  | 2.76 |  | anti-PD-L1 IgG antibody 2018EP280-E04 (printed construct pair EP486/EP489) (antibody, V domains shown) VH: QVQLQQWGAGLLKPSETLSLTCAVYGGSFSGYYWSWIRQPPGKGLEWIGEINHIGSTNYNPSLKSRVTISVDTSNNQFSLKLSSVTAADTAVYYCARGRRLRYFDWAAYNWFDPWGQGTLVTVSS VL: QSALTQDPAVSVALGQTVRISCQGDSLRSHYASWYQQKPGQAPVVVVYDNSDRPSGIPDRFSGSNSGNTATLTISRVEVGDEADYYCQVWDSSSDHYVFGTGTKVTVLG |  |
|  |  |  |  |  |  | 9.5 |  | anti-PD-L1 IgG antibody EP488/EP489 (2018EP171-H02) (antibody, V domains shown) VH: QVQLVQSGAEVKKPGSSVKVSCKASGGTFSSYAISWVRQAPGQGLEWMGGIIPIFGTANYAQKFQGRVTITADESTSTAYMELSSLRSEDTAVYYCARDKGYGSGWRGDYWGQGTLVTVSS VL: QSVLTQPPSASGTPGQRVTISCSGSYSNIGSNFVNWYQQLPGTAPKLLIHFNNQRPSGVPDRFSGSRSGTSASLAISGLQSEDEADYFCSTWDDSLKGPIFGGGTKLTVLG |  |
|  |  |  |  |  |  |  | 0.0799 | 2019EP69-H10 scFv (scFv, V domains shown) VH: QVQLVQSGAEVKKPGSSVKVSCKASGGTFSSYAISWVRQAPGQGLEWMGGIIPIFGTANYAQKFQGRVTITADESTSTAYMELSSLRSEDTAVYYCARDKWFGSGWRGDYWGQGTLVTVSS VL: QSVLTQPPSASGTPGQRVTISCSGSYSNIGSNFVNWYQQLPGTAPKLLIHFNNQRPSGVPDRFSGSRSGTSASLAISGLQSEDEADYFCSTWDDSLKGPIFGGGTKLTVL |  |
|  |  |  |  |  |  |  | 2 | 2019EP69-F02 scFv (scFv, V domains shown) VH: QVQLVQSGAEVKKPGSSVKVSCKASGGTFSSYAISWVRQAPGQGLEWMGGIIPIFGTANYAQKFQGRVTITADESTSTAYMELSSLRSEDTAVYYCARDKWYGSGWRGDYWGQGTLVTVSS VL: QSVLTQPPSASGTPGQRVTISCSGSYSNIGSNFVNWYQQLPGTAPKLLIHFNNQRPSGVPDRFSGSRSGTSASLAISGLQSEDEADYFCSTWDDSLKGPIFGGGTKLTVL |  |
|  |  |  |  |  |  |  | 0.25 | 2018EP171-H02 scFv (scFv, V domains shown) VH: QVQLVQSGAEVKKPGSSVKVSCKASGGTFSSYAISWVRQAPGQGLEWMGGIIPIFGTANYAQKFQGRVTITADESTSTAYMELSSLRSEDTAVYYCARDKGYGSGWRGDYWGQGTLVTVSS VL: QSVLTQPPSASGTPGQRVTISCSGSYSNIGSNFVNWYQQLPGTAPKLLIHFNNQRPSGVPDRFSGSRSGTSASLAISGLQSEDEADYFCSTWDDSLKGPIFGGGTKLTVL | EC50 [8]: 0.25 nM |
|  |  |  |  |  |  |  | 0.207 | 2019EP69-E10 scFv (scFv, V domains shown) VH: QVQLVQSGAEVKKPGSSVKVSCKASGGTFSSYAISWVRQAPGQGLEWMGGIIPIFGTANYAQKFQGRVTITADESTSTAYMELSSLRSEDTAVYYCARDKGFGSGWRGDYWGQGTLVTVSS VL: QSVLTQPPSASGTPGQRVTISCSGSYSNIGSNFVNWYQQLPGTAPKLLIHFNNQRPSGVPDRFSGSRSGTSASLAISGLQSEDEADYFCSTWDDSLKGPIFGGGTKLTVL |  |

From US20250340646A1 (ELPIS BIOPHARMACEUTICALS, published 2025)
